From patent US20190309059A1 (SHANGHAI PHARMAEXPLORER, published 2019)
One block for each molecule: values may come before it.

Tests used:
[1] = target: mouse IL-13 (purchased from sino biological) (mouse) (UniProt P20109); assay: ELISA, mouse IL-13; antibody at 0.001 nM
[2] = target: mouse IL-13 (purchased from sino biological) (mouse) (UniProt P20109); assay: ELISA, mouse IL-13; antibody at 0.53 nM
[3] = target: mouse IL-13 (purchased from sino biological) (mouse) (UniProt P20109); assay: ELISA, mouse IL-13; antibody at 0.11 nM
[4] = target: cynomolgus IL-13 (purchased from sino biological) (cynomolgus) (UniProt Q0PW92); assay: ELISA, cynomolgus IL-13; antibody at 0.021 nM
[5] = target: mouse IL-13 (purchased from sino biological) (mouse) (UniProt P20109); assay: ELISA, mouse IL-13; antibody at 0.004 nM
[6] = target: mouse IL-13 (purchased from sino biological) (mouse) (UniProt P20109); assay: ELISA, mouse IL-13; antibody at 0.000 nM
[7] = target: mouse IL-13 (purchased from sino biological) (mouse) (UniProt P20109); assay: ELISA, mouse IL-13; antibody at 2.67 nM
[8] = target: cynomolgus IL-13 (purchased from sino biological) (cynomolgus) (UniProt Q0PW92); assay: ELISA, cynomolgus IL-13; antibody at 0.004 nM
[9] = target: cynomolgus IL-13 (purchased from sino biological) (cynomolgus) (UniProt Q0PW92); assay: ELISA, cynomolgus IL-13; antibody at 2.67 nM
[10] = target: cynomolgus IL-13 (purchased from sino biological) (cynomolgus) (UniProt Q0PW92); assay: ELISA, cynomolgus IL-13; antibody at 0.53 nM
[11] = target: mouse IL-13 (purchased from sino biological) (mouse) (UniProt P20109); assay: ELISA, mouse IL-13; antibody at 0.021 nM
[12] = target: cynomolgus IL-13 (purchased from sino biological) (cynomolgus) (UniProt Q0PW92); assay: ELISA, cynomolgus IL-13; antibody at 66.67 nM
[13] = target: his-labeled human IL-13 (immunogen A) (human) (UniProt P35225); assay: ELISA, biotin-immunogen A; antibody at 0.021 nM

Sequence of cynomolgus IL-13 (purchased from sino biological) (cynomolgus) (Q0PW92 entry or part of it): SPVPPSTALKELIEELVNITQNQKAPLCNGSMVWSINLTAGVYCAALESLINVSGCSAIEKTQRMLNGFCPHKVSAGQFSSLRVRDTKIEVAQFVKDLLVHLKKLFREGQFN

- OD450 nm [1]: 0.07
- OD450 nm [2]: 0.08
- OD450 nm [3]: 0.08
- OD450 nm [4]: 0.068
- OD450 nm [5]: 0.07
- OD450 nm [6]: 0.1
- OD450 nm [7]: 0.08
- OD450 nm [8]: 0.061
- OD450 nm [9]: 0.1
- OD450 nm [10]: 0.08
- OD450 nm [11]: 0.07
Molecule: IgG control (mouse IgG) (antibody)

B1: 29D9H8 (lead antibody, mouse hybridoma) (antibody, V domains shown)
VH: QVQLQQSGAELVRPGASVTLSCKASGYTFTDYEMHWVKQTPVHGLEWIGGIDPETGGTASNQKFKGKAILTADKSSSTAYMELRSLTSEDSAVYYCTSGDYFGGGPFAYWGQGTLVTVSA
VL: DIKMTQSPSSMYASLGERVTITCKASQDINSYLSWFQQKPGKSPKTLIYRANRLVDGVPSRFSGSGSGQDYSLTISSLDYEDMGIYYCLQYDEFPYTFGGGTKLEIK
notes: Mouse monoclonal antibody purified from hybridoma supernatant on Protein G
- OD450 nm [12]: 2.52
- OD450 nm [13]: 0.34

B2: 28A2E11 (lead antibody, mouse hybridoma) (antibody, V domains shown)
VH: EVQLQQSGAELVKPGASVKLSCTASGFNIKDYYMHWVKQRTEQGLEWIGRIDPEDGETKYAPKFHDKATLTADTSSNTAYLQFSSLASEDTAVYYCTRYDYYGPFAYWGQGTLVTVSA
VL: QAVVTQESVLTTSPGETVTLTCRSSTGAVTTSNYANWVQEKPDHLFTGLIGGTNNRAPGVPARFSGSLIGDKAALTITGAQTEDEAIYFCALWYINHFIFGSGTKVTVL
notes: as for B1
- OD450 nm [12]: 1.99
- OD450 nm [13]: 0.28
